Assay results taken from patent publication US9999687B2, “Fluorescent imaging agents” (VisEn Medical, Inc., priority 2008, dated 2018).
Values belong to the substance of their own block, whether it stands above or below them. [ ]: non-standard residue; d: D form. The star is where a group is joined. Cha = N[C@@H](CC1CCCCC1)C(=O)O; Pent4ynoyl = C#CCCC(=O)*; F5 = not defined here; βAla = NCCC(=O)O

Columns and labels:
[1] = target: T1, human neutrophil Cathepsin G (Homo sapiens, UniProt P08311); experiment: Enzyme activation profile of R agents, Cathepsin G; format: biochemical; conditions: probe 1 μM, enzyme 100 nM, room temperature, 24 hours; FIG. 11
T1 construct: purchased BIOMOL
T1 sequence (P08311 21-244): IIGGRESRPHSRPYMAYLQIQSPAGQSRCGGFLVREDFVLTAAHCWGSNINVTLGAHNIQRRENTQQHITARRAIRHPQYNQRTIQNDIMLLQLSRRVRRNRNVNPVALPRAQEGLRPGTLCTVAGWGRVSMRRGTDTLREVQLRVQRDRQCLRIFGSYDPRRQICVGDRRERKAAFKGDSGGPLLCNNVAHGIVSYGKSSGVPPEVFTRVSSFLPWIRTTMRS
Experimental: (§1) The reactions were performed with appropriate buffer in a 96-well plate with a final assay volume of 250 μL and probe and enzyme concentrations of 1 μM and 100 nM, respectively. The reactions were incubated at 37 C for Renin and room temperature for the other proteases. The buffer for human neutrophil Cathepsin G (BIOMOL) was 100 mM Tris (pH 7.5), 1.6 M NaCl. The buffer for Cathepsin D (BIOMOL) was 100 mM Formic Acid (pH 3.3). The buffer for recombinant human neutrophil elastase (Innovative Research) was 100 mM Tris (pH 7.5). The buffer for plasmin (CalBiochem) and trypsin (Sigma) was 1× phosphate buffered saline (PBS) (pH 7.4). The buffer for recombinant human Renin (rhRenin) (Proteos) and recombinant rat Renin (rrRenin) (Proteos) was 50 mM MOPS (pH 7.4), 100 mM NaCl, with freshly prepared 0.002% tween-20. The plate was incubated at the appropriate temperature and the activity was monitored at 24 hours with a Gemini (Molecular Devices) plate reader at excitation wavelength 663 nm, emission 690 nm, and cut off 665 nm. The released fluorescent unit was determined by subtracting the fluorescence of the probe alone from the total fluorescence.

[2] = target: T2, recombinant human Renin (rhRenin) (Homo sapiens, UniProt P00797); experiment: Enzyme activation profile of R agents, renin; format: biochemical; conditions: probe 1 μM, enzyme 100 nM, 37 C, 24 hours; FIG. 11
T2 construct: purchased Proteos
T2 sequence (P00797 67-406): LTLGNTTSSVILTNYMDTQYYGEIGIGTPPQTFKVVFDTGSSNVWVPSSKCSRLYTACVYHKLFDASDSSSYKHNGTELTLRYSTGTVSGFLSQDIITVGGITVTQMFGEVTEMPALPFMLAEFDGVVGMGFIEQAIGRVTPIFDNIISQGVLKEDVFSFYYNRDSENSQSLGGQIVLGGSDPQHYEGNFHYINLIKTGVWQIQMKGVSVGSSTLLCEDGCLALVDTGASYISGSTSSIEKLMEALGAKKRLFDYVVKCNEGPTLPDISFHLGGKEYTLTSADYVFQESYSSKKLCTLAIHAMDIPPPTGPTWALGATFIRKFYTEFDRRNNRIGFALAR
Experimental: as §1

[3] = target: T3, recombinant human neutrophil elastase (Homo sapiens, UniProt P08246); experiment: Enzyme activation profile of R agents, neutrophil elastase; format: biochemical; conditions: probe 1 μM, enzyme 100 nM, room temperature, 24 hours; FIG. 11
T3 construct: purchased Innovative Research
T3 sequence (P08246 30-267): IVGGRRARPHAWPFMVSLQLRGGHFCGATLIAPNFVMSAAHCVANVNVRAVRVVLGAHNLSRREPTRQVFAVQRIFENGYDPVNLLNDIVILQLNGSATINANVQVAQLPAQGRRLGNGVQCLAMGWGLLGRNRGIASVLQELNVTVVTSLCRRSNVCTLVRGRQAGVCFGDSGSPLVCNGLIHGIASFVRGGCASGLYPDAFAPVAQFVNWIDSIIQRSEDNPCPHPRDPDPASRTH
Experimental: as §1

trypsin = experiment: Enzyme activation profile of R agents, trypsin; format: biochemical; conditions: probe 1 μM, enzyme 100 nM, room temperature, 24 hours; FIG. 11
Experimental: as §1

[4] = test system: inflamed atherosclerotic plaques of high cholesterol fed apoE-/- mice; experiment: Cardiovascular disease imaging, fluorescence reflectance; format: in vivo; conditions: 2 nmol, 24 hours post-injection, ex vivo fluorescence reflectance imaging; FIG. 8
Experimental: High cholesterol fed apoE−/− mice were injected with 2 nmol of imaging agent and in vivo imaging was performed with ex vivo fluorescence reflectance imaging.

[5] = target: T4, Recombinant human Cathepsin B (Homo sapiens, UniProt P07858); experiment: Enzyme activation profile of Q65, Cathepsin B; format: biochemical; conditions: probe 0.5 μM, enzyme 0.05 μM, room temperature, monitored 0-24 hours; FIG. 5
T4 construct: purchased R&D Systems
Experimental: The reactions were performed with appropriate buffer at room temperature in a 96-well plate with a final assay volume of 250 μL and probe and enzyme concentrations of 0.5 μM and 0.05 μM, respectively. The buffer for Cathepsin B was 25 mM MES (pH 5.0), 1 mM DTT. Recombinant human Cathepsin B (R&D Systems) was activated in buffer of 25 mM MES (pH 5.0) and 5 mM DTT for 15 minutes at room temperature. Recombinant human Cathepsin L (R&D Systems) was activated in buffer of 50 mM MES (pH 6.0), 5 mM DTT, for 15 minutes on ice. Recombinant mouse Cathepsin Z (R&D Systems) was activated in buffer of 25 mM NaOAc (pH 3.0), 5 mM DTT for 5 minutes at room temperature. The buffer for plasmin (CalBiochem) and trypsin (Sigma) was PBS at pH 7.4.
The plate was incubated at room temperature and the activity monitored at 0, 1, 3, 5, and 24 hours with a Gemini (Molecular Devices) plate reader at excitation wavelength 663 nm, emission 690 nm, and cut off 665 nm. The activity was calculated as the fold of activation by comparing the fluorescence of the enzyme with probe to the fluorescence of probe alone.

[6] = test system: kidneys of mice on a low sodium diet; experiment: Renal imaging, low sodium diet versus control diet; format: in vivo, C57BL6 mice; conditions: intravenous 0.2-4 nmol/mouse, imaging at 24 hrs, fluorescence molecular tomography; FIG. 12
Experimental: C57BL6 mice (Jackson Laboratories) were fed a sodium deficient diet (0.02% Na) and water was replaced with a solution of amiloride (0.1 mg/5 mL or 5 mg/kg/day) for 2 days. Control C57BL6 mice were fed regular chow diet and water. Imaging agents [F5]-Lys-His-Pro-Phe-His-Leu-Val-Ile-His-Lys(F5)-[OH] (SEQ ID NO:401) (R20) and ([F5]-Lys-His-Pro-Phe-His-Leu-Val-Ile-His-Lys(F5)-[NHmPEG20k] (SEQ ID NO:428) (R21) were injected intravenously at different concentrations (0.2, 0.7, 2 and 4 nmol/mouse) following 2 days on a low salt diet. Imaging was conducted at 24 hrs using a Fluorescence Molecular Tomography system (VisEn Medical, Woburn Mass.).

[7] = test system: ovariectomized mice, tibia region; experiment: Bone imaging, ovariectomy induced osteoporosis; format: in vivo, BALB/c female mice; conditions: intravenous, 4 and 24 hours post-injection, fluorescence molecular tomography; FIG. 7
Experimental: BALB/c female mice 7 weeks old (Charles River Laboratory, Wilmington, Mass.) were subjected to ovariectomy or sham surgery to induce osteoporosis. After one to two weeks after surgery, the mice were injected intravenously with imaging agent [F5]-His-Gly-Pro-Asn-Lys(F5)-[PEG20kDa] (SEQ ID NO:427) (Agent Q94). Imaging was conducted at various time points using a Fluorescence Molecular Tomography system (VisEn Medical, Bedford, Mass.).

[8] = test system: activated humanized rabbit Cathepsin K; experiment: Enzyme activation profile of Q92 and Q93, Cathepsin K; format: biochemical; conditions: probe 0.5 μM, enzyme 0.05 μM, room temperature, 0-24 hours; panel also Cathepsin B, L, MMP-2, MMP-9; FIG. 6
Experimental: The reactions were performed with appropriate buffer at room temperature in a 96-well plate with a final assay volume of 250 μL and probe and enzyme concentrations of 0.5 μM and 0.05 μM respectively. The buffer for activated humanized rabbit Cathepsin K (Merck) was 50 mM MES (pH 5.0), 2.5 mM EDTA, 2.5 mM DTT. The buffer for Cathepsin B was 25 mM MES (pH 5.0), 1 mM DTT. The recombinant human Cathepsin B (R&D Systems) was activated in buffer of 25 mM MES (pH 5.0) and 5 mM DTT for 15 minutes at room temperature. The recombinant human Cathepsin L (R&D Systems) was activated in buffer of 50 mM MES (pH 6.0), 5 mM DTT, for 15 minutes on ice. The buffer for MMP-2 (BIOMOL) and MMP-9 (BIOMOL) was 50 mM Tris (pH 7.5), 10 mM CaCl2, 150 mM NaCl, and 0.05% Brij-35 detergent. The plate was incubated at room temperature and the activity was monitored at 0, 1, 3, 5, and 24 hours with a Gemini (Molecular Devices) plate reader at excitation wavelength 663 nm, emission 690 nm, and cut off 665 nm. The released fluorescent unit was determined by subtracting the fluorescence of the probe alone from the total fluorescence.

activation by human neutrophil cathepsin (released fluorescent unit) [1]: activated
activation by recombinant human renin (released fluorescent unit) [2]: activated
activation by human neutrophil elastase (released fluorescent unit) [3]: activated
activation by trypsin (released fluorescent unit) (trypsin): activated
Substance: [F5]-Lys-His-Pro-Phe-His-Leu-Val-Ile-His-Lys(F5)-[NHmPEG5k] (F5-KHPFHLVIHK(F5)-NHmPEG5k; reading uncertain; also: printed as [F5]-Lys-His-Pro-Phe-His-Leu-Val-Ile-His-Lys(F5)-[NHmPEG5k]) [Agent R27]

activation by Cathepsin B (fold of activation) [5]: activated by Cathepsin B
Substance: Pentynoyl-Lys(F5)-Gly-Phe-Leu-Gly-βAla-Lys(F5)-PEG20kDa (Pent4ynoyl-K(F5)GFLG[βAla]K(F5)-PEG20kDa; reading uncertain; also: printed as Pentynoyl-Lys(F5)-Gly-Phe-Leu-Gly-βAla-Lys(F5)-PEG20kDa) [Agent Q65]
fluorescence in atherosclerotic plaques [4]: Fluorescence was detected in plaque-laden vascular sections in the aortic root, the arch and carotid arteries

Substance: [F5]-Lys-His-Pro-Phe-His-Leu-Val-Ile-His-Lys(F5)-[OH] (F5-KHPFHLVIHK(F5)-OH; reading uncertain; also: printed as [F5]-Lys-His-Pro-Phe-His-Leu-Val-Ile-His-Lys(F5)-[OH]) [Agent R20]
kidney signal, low sodium diet versus control diet [6]: increased signal relative to the kidneys in the mice on the control diet
activation by recombinant human renin (released fluorescent unit) [2]: activated primarily by recombinant human rennin

Substance: [F5]-His-Gly-Pro-Asn-Lys(F5)-[PEG20kDa] (F5-HGPNK(F5)-PEG20kDa; reading uncertain; also: printed as [F5]-His-Gly-Pro-Asn-Lys(F5)-[PEG20kDa]) [Agent Q94]
probe signal in tibia region, ovariectomized versus sham mice [7]: increased probe signal detected in the tibia region

activation by Cathepsin K (released fluorescent unit) [8]: activated primarily by Cathepsin K
Substance: [F5]-His-Gly-Pro-Asn-Lys(F5)-His-Gly-Pro-Asn-βA-[PEG20kDa] (F5-HGPNK(F5)HGPN[βAla]-PEG20kDa; reading uncertain; also: printed as [F5]-His-Gly-Pro-Asn-Lys(F5)-His-Gly-Pro-Asn-βA-[PEG20kDa]) [Agent Q93]

activation by human neutrophil cathepsin (released fluorescent unit) [1]: activated
activation by recombinant human renin (released fluorescent unit) [2]: activated
activation by human neutrophil elastase (released fluorescent unit) [3]: activated
activation by trypsin (released fluorescent unit) (trypsin): activated
Substance: [F5]-Lys-His-Pro-Phe-His-Leu-Val-Ile-His-Lys(F5)-[NHmPEG20k] (F5-KHPFHLVIHK(F5)-NHmPEG20k; reading uncertain; also: printed as [F5]-Lys-His-Pro-Phe-His-Leu-Val-Ile-His-Lys(F5)-[NHmPEG20k]) [Agent R21]
kidney signal, low sodium diet versus control diet [6]: increased signal relative to the kidneys in the mice on the control diet

Substance: [F5]-Lys(Ac)-His-Pro-Phe-His-Leu-Val-Ile-His-Lys(F5)-[OH] (F5-K(Ac)HPFHLVIHK(F5)-OH; reading uncertain; also: printed as [F5]-Lys(Ac)-His-Pro-Phe-His-Leu-Val-Ile-His-Lys(F5)-[OH]) [Agent R23]
activation by recombinant human renin (released fluorescent unit) [2]: activated primarily by recombinant human rennin

Substance: [F5]-Lys-His-Pro-Phe-His-Cha-Val-Ile-His-Lys(F5)-[OH] (F5-KHPFH[Cha]VIHK(F5)-OH; reading uncertain; also: printed as [F5]-Lys-His-Pro-Phe-His-Cha-Val-Ile-His-Lys(F5)-[OH]) [Agent R24]
activation by recombinant human renin (released fluorescent unit) [2]: activated primarily by recombinant human rennin

activation by Cathepsin K (released fluorescent unit) [8]: activated primarily by Cathepsin K
Substance: [F5]-His-Gly-Pro-Arg-Lys(F5)-[PEG20kDa] (F5-HGPRK(F5)-PEG20kDa; reading uncertain; also: printed as [F5]-His-Gly-Pro-Arg-Lys(F5)-[PEG20kDa]) [Agent Q92]
